Reference: US20190247381A1

B1: SSB (protein)
chain: MAENGDNEKMAALEAKICHQIEYYFGDFNLPRDKFLKEQIKLDEGWVPLEIMIKFNRLNRLTTDFNVIVEALSKSKAELMEISEDKTKIRRSPSKPLPEVTDEYKNDVKNRSVYIKGFPTDATLDDIKEWLEDKGQVLNIQMRRTLHKAFKGSIFVVFDSIESAKKFVETPGQKYKETDLLILFKDDYFAKKNEERKQNKVEAKLRAKQEQEAKQKLEEDAEMKSLEEKIGCLLKFSGDLDDQTCREDLHILFSNHGEIKWIDFVRGAKEGIILFKEKAKEALGKAKDANNGNLQLRNKEVTWEVLEGEVEKEALKKIIEDQQESLNKWKSKGRRFKGKGKGNKAAQPGSGKGKVQFQGKKTKFASDDEHDEHDENGATGPVKRAREETDKEEPASKQQKTENGAGDQ
B2: YARS2 (protein)
chain: TLNLSVLLPLGLRKAHSGAQGLLAAQKARGLFKDFFPETGTKIELPELFDRGTASFPQTIYCGFDPTADSLHVGHLLALLGLFHLQRAGHNVIALVGGATARLGDPSGRTKEREALETERVRANARALRLGLEALAANHQQLFTDGRSWGSFTVLDNSAWYQKQHLVDFLAAVGGHFRMGTLLSRQSVQLRLKSPEGMSLAEFFYQVLQAYDFYYLFQRYGCRVQLGGSDQLGNIMSGYEFINKLTGEDVFGITVPLITSTTGAKLGKSAGNAVWLNRDKTSPFELYQFFVRQPDDSVERYLKLFTFLPLPEIDHIMQLHVKEPERRGPQKRLAAEVTKLVHGREGLDSAKRCTQALYHSSIDALEVMSDQELKELFKEAPFSEFFLDPGTSVLDTCRKANAIPDGPRGYRMITEGGVSINHQQVTNPESVLIVGQHILKNGLSLLKIGKRNFYIIKWLQL
B3: SERPINH1 (protein)
chain: AEVKKPAAAAAPGTAEKLSPKAATLAERSAGLAFSLYQAMAKDQAVENILVSPVVVASSLGLVSLGGKATTASQAKAVLSAEQLRDEEVHAGLGELLRSLSNSTARNVTWKLGSRLYGPSSVSFADDFVRSSKQHYNCEHSKINFRDKRSALQSINEWAAQTTDGKLPEVTKDVERTDGALLVNAMFFKPHWDEKFHHKMVDNRGFMVTRSYTVGVMMMHRTGLYNYYDDEKEKLQIVEMPLAHKLSSLIILMPHHVEPLERLEKLLTKEQLKIWMGKMQKKAVAISLPKGVVEVTHDLQKHLAGLGLTEAIDKNKADLSRMSGKKDLYLASVFHATAFELDTDGNPFDQDIYGREELRSPKLFYADHPFIFLVRDTQSGSLLFIGRLVRPKGDKMRDEL
B4: ACOX1 (protein)
chain: MNPDLRRERDSASFNPELLTHILDGSPEKTRRRREIENMILNDPDFQHEDLNFLTRSQRYEVAVRKSAIMVKKMREFGIADPDEIMWFKKLHLVNFVEPVGLNYSMFIPTLLNQGTTAQKEKWLLSSKGLQIIGTYAQTEMGHGTHLRGLETTATYDPETQEFILNSPTVTSIKWWPGGLGKTSNHAIVLAQLITKGKCYGLHAFIVPIREIGTHKPLPGITVGDIGPKFGYDEIDNGYLKMDNHRIPRENMLMKYAQVKPDGTYVKPLSNKLTYGTMVFVRSFLVGEAARALSKACTIAIRYSAVRHQSEIKPGEPEPQILDFQTQQYKLFPLLATAYAFQFVGAYMKETYHRINEGIGQGDLSELPELHALTAGLKAFTSWTANTGIEACRMACGGHGYSHCSGLPNIYVNFTPSCTFEGENTVMMLQTARFLMKSYDQVHSGKLVCGMVSYLNDLPSQRIQPQQVAVWPTMVDINSPESLTEAYKLRAARLVEIAAKNLQKEVIHRKSKEVAWNLTSVDLVRASEAHCHYVVVKLFSEKLLKIQDKAIQAVLRSLCLLYSLYGISQNAGDFLQGSIMTEPQITQVNQRVKELLTLIRSDAVALVDAFDFQDVTLGSVLGRYDGNVYENLFEWAKNSPLNKAEVHESYKHLKSLQSKL

The molecules below were run against FLAG-HA-Atoh1 (Mus musculus (Mouse)) (UniProt P48985) (assay: IP-MS: immunoprecipitation of Atoh1 and its associated binding partners, excised gel band, mass spectrometry).

Compared with PRPS1 (from UniProt P60891), TUBB2A (from UniProt Q13885) is higher in Total peptide: 3 peptides for the first, 159 peptides for the second.

Going from “CK1ε (CSNK1E), endogenous in 293T cells (from UniProt P49674) (enzyme)” to PDE4B (from UniProt Q07343), the Total peptide falls from 6 peptides to 1 peptides.

Compared with “CK1δ (CSNK1D), endogenous in 293T cells (from UniProt P48730) (enzyme)”, EEF1A1 (from UniProt P68104) is higher in Total peptide: 7 peptides for the first, 103 peptides for the second.

First: TUBA1A (from UniProt Q71U36)
Second: RBMX (from UniProt P38159)
The Total peptide of the first is higher: 112 peptides for the first, 65 peptides for the second.

First: TUBB2B (from UniProt Q9BVA1)
Second: ENO1 (from UniProt P06733)
The Total peptide of the first is lower: 2 peptides for the first, 62 peptides for the second.

Compared with BCKDHA (from UniProt P12694), PSMC2 (from UniProt P35998) is higher in Total peptide: 5 peptides for the first, 50 peptides for the second.

First: PSMC5 (from UniProt P62195)
Second: PRDX4 (from UniProt Q13162)
The Total peptide of the first is higher: 52 peptides for the first, 1 peptides for the second.

AAMP (from UniProt Q13685) and TUBA4A (from UniProt P68366) are the same in Total peptide: 1 peptides for the first, 1 peptides for the second.

Compared with TUBA1C (from UniProt Q9BQE3), B1 is higher in Total peptide: 7 peptides for the first, 65 peptides for the second.

First: B2
Second: B3
The Total peptide of the first is higher: 11 peptides for the first, 9 peptides for the second.

With B4 the Total peptide was 5 peptides.
